# Experiments:
# PRC2 [1] = molecular target: T1, PRC2 (Homo sapiens, UniProt Q15910); assay: in vitro PRC2 histone methyltransferase reactions with H3 peptides added in trans; assay type: biochemical; details: for effect on PRC2 activity relative to the no peptide control: H3 peptides (18-37) in trans, purified wildtype mononucleosomes (FIG. 3A)
# T1 construct: Mono Q fractions containing stoichiometric components of PRC2 were pooled; made in house; FLAG-M2 immunoprecipitation from nuclear extract, then Mono Q
# Experimental: Human EED protein containing an N-terminal FLAG-epitope was cloned in pCDH-EF1alpha-IRES-Puro (System Biosciences). Resulting lentivirus were used to establish stable 293T and Hela cell lines that express FLAG-hEED. Nuclear extracts were prepared from washed cell pellets as previously described (Lewis et al., “Daxx is an H3.3-specific Histone Chaperone and Cooperates with ATRX in Replication-Independent Chromatin Assembly at Telomeres,” Proc Natl Acad Sci USA 107: 14075-14080 (2010), which is hereby incorporated by reference in its entirety). FLAG-M2 immunoprecipitation of clarified nuclear extract was performed, followed by washing (250 mM KCl) and elution with 3XFLAG peptide (400 ng/μL). Eluate from the FLAG M2 beads was loaded onto a Mono Q ion exchange column. Mono Q fractions containing stoichiometric components of PRC2 were pooled. HEK293T cells expressing epitope-tagged Histone H3 were hypotonically lysed. Washed nuclei were resuspended in micrococcal nuclease digestion buffer (20 mM HEPES, pH 7.9, 30 mM KCl, 2 mM CaCl2, 0.4 mM PMSF, 3× Protease Inhibitor Cocktail (Roche). Micrococcal nuclease (Worthingtons, 15 U/μL) was added to nuclei, followed by incubation at 30° C. for 5-30 minutes. Reactions were returned to ice, followed by addition of 3 mM EDTA, 3 mM EGTA, 120 mM NaCl, 0.1% Triton. Nuclei were dounced (Wheaton A×10), followed by centrifugation 15K rpm in SS34. FLAG M2 beads were incubated with clarified supernatant at 4° C. Washed beads (150 mM KCl) were eluted with 3× FLAG peptide ([…]). DNA from M2 FLAG eluate fractions was resolved by gel electrophoresis for estimation of chromatin lengths. Fractions of similar chromatin (DNA) lengths were pooled and dialyzed (20 mM HEPES, pH 7.9, 10 mM KCl, 10% Glycerol, 0.4 mM PMSF, 0.5 mM DTT). Purified PRC2, peptides, and chromatin substrates were added to reaction buffer (50 mM HEPES, pH 7.9, 0.5 mM DTT, 0.4 mM PMSF). Labeled S-adenosyl-methionine (3H-SAM) was added to reactions (225 μM), followed by incubation at 30° C. The reactions were stopped by binding to P81 filter paper (GE Health) for scintillitation counting, or the addition of SDS-PAGE for autoradiography.
# PRC2 [2] = molecular target: T1, PRC2; assay: kinetic studies of PRC2 methyltransferase assays with varying mononucleosome substrate concentrations; assay type: biochemical; details: initial velocity versus nucleosome substrate concentration
# Experimental: Purified PRC2, peptides, and chromatin substrates were added to reaction buffer (50 mM HEPES, pH 7.9, 0.5 mM DTT, 0.4 mM PMSF). Labeled S-adenosyl-methionine (3H-SAM) was added to reactions (225 μM), followed by incubation at 30° C. The reactions were stopped by binding to P81 filter paper (GE Health) for scintillitation counting, or the addition of SDS-PAGE for autoradiography.
# T1 sequence (Q15910 whole entry): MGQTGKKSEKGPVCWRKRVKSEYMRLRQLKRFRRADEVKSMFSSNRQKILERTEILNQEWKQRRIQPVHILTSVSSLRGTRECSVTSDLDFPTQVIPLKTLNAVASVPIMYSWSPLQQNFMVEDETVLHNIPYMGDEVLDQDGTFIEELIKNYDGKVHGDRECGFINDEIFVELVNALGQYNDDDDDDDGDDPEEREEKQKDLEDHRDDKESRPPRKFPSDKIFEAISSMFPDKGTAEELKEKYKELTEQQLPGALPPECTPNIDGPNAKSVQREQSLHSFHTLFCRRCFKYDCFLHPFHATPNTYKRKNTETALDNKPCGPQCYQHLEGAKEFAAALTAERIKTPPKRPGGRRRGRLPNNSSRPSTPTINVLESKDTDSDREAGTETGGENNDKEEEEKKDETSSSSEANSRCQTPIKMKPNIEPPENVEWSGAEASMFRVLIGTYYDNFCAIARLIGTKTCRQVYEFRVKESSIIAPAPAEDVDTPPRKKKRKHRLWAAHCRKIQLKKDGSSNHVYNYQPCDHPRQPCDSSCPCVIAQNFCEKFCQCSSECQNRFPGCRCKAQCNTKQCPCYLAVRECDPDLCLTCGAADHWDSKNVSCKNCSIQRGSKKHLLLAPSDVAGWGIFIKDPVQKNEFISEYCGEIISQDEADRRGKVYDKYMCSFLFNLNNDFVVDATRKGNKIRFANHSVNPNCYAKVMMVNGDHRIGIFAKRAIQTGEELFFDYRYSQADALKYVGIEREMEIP
# T1 sequence (O75530 whole entry partner): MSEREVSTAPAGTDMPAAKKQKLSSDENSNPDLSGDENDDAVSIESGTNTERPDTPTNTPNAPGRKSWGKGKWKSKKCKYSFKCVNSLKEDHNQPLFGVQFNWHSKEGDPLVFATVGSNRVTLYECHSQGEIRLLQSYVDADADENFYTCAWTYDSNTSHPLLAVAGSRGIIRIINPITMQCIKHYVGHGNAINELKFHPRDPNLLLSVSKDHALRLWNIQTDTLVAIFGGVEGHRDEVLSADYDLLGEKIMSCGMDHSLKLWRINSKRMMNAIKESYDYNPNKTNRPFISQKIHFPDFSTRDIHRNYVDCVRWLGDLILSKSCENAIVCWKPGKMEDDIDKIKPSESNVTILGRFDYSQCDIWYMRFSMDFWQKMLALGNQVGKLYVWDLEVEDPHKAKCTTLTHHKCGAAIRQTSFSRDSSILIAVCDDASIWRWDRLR
# T1 sequence (Q15022 whole entry partner): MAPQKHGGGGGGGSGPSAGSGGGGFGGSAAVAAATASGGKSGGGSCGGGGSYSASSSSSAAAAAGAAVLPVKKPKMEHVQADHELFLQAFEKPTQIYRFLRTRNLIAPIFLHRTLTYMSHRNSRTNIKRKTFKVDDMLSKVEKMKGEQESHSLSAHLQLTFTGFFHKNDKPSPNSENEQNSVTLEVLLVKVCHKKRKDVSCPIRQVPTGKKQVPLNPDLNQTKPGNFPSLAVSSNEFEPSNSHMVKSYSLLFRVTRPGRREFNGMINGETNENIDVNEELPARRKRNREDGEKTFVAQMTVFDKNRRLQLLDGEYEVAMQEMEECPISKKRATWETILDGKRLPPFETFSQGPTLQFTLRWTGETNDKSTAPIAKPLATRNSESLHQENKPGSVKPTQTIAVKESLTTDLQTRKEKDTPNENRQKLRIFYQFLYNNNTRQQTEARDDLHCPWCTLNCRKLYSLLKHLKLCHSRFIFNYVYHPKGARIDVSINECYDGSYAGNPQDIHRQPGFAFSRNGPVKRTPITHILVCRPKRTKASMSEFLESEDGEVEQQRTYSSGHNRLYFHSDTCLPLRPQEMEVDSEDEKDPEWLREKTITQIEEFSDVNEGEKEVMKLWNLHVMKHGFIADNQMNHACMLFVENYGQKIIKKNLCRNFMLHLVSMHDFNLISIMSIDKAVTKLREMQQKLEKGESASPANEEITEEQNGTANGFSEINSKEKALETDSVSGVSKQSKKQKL
# T1 sequence (Q09028 whole entry partner): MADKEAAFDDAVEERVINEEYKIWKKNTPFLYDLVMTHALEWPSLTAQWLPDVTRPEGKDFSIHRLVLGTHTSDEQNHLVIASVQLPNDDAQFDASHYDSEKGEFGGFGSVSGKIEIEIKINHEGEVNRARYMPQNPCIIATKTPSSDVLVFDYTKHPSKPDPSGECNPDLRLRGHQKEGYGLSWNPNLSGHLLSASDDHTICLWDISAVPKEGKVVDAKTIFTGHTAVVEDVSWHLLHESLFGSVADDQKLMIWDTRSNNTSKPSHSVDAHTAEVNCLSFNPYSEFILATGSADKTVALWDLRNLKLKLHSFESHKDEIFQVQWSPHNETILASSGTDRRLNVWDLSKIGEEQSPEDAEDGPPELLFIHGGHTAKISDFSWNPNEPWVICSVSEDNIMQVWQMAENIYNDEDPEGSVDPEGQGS
substance,measurement,setting,value
K27ac: H3 peptide (18-37) acetylated at K27,change in PRC2 activity on titration against K27me3 peptide,PRC2 [1]; 9:1 ratio of K27ac:K27me3 peptide (FIG. 3D),no decrease
same,effect on PRC2 activity relative to the no peptide control,PRC2 [1],little stimulation
same,effect on PRC2 activity on titration into reactions with constant low concentration of K27me3 peptide,PRC2 [1]; constant low K27me3 peptide (FIG. 3F),no decrease
same,effect on apparent Vmax,PRC2 [2],did not decrease
"K27me3: H3 peptide trimethylated at K27, allosteric activator of PRC2",effect on PRC2 activity towards mononucleosome or oligonucleosome templates,PRC2 [1]; 10 or 100 μM peptide (FIG. 2C),strongly stimulated
same,effect on PRC2 activity relative to the no peptide control,PRC2 [1],strongly stimulated
Lys^27 replaced by Leu: H3 peptide (18-37) containing Lys27 replaced by Leu (KQLATKAARLSAPSTGGVKK),inhibitory effect on PRC2 in vitro,"PRC2 [1]; 50 or 100 μM H3 peptide (18-37), reconstituted nucleosomes (FIGS. 5B and 5C)",no inhibitory effect
unmodified: unmodified H3 peptide (18-37),effect on PRC2 activity relative to the no peptide control,PRC2 [1],little stimulation
